In patent US20220127354A1 (Amgen, published 2022):
Positions count from the first letter of the chain named. Names may count otherwise.

T1: Cyno Cadherin-19 (cynomologous monkey (Macaca …, UniProt Q9H159 44-772 (human entry)))
T1 construct: also called cynomologous monkey CDH-19
T1 chain: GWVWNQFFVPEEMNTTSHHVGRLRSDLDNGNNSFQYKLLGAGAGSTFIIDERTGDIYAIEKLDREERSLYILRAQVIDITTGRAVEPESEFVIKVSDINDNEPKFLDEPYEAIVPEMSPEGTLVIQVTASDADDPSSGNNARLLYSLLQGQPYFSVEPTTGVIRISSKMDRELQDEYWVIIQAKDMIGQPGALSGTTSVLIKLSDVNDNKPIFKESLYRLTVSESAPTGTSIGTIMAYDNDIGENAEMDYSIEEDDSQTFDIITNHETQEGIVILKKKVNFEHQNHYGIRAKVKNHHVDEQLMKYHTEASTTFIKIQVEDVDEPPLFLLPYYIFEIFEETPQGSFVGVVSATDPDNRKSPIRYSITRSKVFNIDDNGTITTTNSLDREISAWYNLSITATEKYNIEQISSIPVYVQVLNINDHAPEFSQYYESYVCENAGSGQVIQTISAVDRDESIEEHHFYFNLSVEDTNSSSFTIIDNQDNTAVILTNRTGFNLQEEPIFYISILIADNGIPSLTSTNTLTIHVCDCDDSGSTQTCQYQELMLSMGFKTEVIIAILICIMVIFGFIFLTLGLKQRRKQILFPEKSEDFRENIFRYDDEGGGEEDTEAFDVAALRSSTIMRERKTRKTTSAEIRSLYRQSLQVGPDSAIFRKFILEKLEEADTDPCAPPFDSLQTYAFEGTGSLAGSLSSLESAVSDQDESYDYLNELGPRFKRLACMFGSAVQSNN

T2: caCDH19(1-43)::FLAG::caCDH19(44-87)::rhCDH19(89-114)::caCDH19(115-770) (construct T, rh EC1b) (rhesus macaque/dog chimera)
T2 construct: leader left out
T2 chain: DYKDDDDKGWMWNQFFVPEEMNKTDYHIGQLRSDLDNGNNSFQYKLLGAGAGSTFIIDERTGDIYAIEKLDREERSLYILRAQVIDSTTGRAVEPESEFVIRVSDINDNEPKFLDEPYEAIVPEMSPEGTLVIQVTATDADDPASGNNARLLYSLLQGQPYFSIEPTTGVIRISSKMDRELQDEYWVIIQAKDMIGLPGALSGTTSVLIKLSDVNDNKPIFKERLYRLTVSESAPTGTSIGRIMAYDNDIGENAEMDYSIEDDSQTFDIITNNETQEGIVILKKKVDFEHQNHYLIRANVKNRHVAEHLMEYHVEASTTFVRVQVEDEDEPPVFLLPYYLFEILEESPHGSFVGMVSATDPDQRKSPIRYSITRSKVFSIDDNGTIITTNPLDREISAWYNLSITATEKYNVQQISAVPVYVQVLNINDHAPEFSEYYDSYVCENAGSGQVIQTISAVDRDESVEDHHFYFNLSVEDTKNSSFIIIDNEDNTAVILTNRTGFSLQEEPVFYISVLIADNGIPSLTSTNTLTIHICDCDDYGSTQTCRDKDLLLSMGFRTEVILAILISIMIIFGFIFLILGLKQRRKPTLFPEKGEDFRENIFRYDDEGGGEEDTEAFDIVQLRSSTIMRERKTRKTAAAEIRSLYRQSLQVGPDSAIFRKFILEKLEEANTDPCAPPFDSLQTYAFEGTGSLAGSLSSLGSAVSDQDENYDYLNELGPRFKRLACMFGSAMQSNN

T3: muCDH19(44-770) with Flag tag (construct I, Mu EC1-5) (mouse)
T3 construct: leader left out; the entry starts at residue 44; also called Mo EC1-5; mouse Cadherin19
T3 chain: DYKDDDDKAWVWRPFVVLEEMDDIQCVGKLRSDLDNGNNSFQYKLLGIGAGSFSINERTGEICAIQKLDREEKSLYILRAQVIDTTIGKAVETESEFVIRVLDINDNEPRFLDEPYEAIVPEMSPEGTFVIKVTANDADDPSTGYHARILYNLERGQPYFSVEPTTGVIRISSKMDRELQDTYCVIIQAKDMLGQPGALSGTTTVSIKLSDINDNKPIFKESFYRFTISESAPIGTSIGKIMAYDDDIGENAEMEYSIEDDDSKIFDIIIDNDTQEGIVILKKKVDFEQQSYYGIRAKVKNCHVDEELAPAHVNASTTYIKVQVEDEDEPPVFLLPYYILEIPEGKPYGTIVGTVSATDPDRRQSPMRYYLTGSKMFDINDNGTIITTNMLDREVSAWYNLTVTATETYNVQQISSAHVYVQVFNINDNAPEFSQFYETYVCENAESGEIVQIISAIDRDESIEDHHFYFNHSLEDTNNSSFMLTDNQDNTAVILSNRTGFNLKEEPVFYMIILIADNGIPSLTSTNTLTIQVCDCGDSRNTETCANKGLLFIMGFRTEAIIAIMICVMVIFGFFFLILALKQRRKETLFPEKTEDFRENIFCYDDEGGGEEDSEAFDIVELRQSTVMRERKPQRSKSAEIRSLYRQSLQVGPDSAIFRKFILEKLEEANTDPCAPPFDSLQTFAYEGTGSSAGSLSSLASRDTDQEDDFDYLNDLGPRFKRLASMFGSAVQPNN

B1: anti-CDH19 antibody 2G6 (Ab ID 13588) (antibody, human IgG1, lambda, V domains shown)
VH: QVQLVESGGGVVQPGRSLRLSCAASGFTFSSYGMHWVRQAPGKGLEWVAFIWYDGSNKYYADSVKDRFTISRDNSKNTLYLQMKSLRAEDTAVYYCARRAGIIGTIGYYYGMDVWGQGTTVTVSS
VL: SYELTQPPSVSVSPGQTASITCSGDRLGEKYTCWYQQRPGQSPLLVIYQDTKRPSGIPERFSGSNSGNTATLTISGTQAMDEADYYCQAWDSSTVVFGGGTKLTVLG
notes: Bin 4
B2: hu anti-<huCDH19> 4A9 (Ab ID 13589) (antibody, human IgG1, lambda, V domains shown)
VH: QVQLQESGPGLVKPSETLSLTCTVSGGSISGYYWSWIRQPPGKGLEWFAYFSYSGSTNYNPSLKSRVTLSVDTSKNQFSLKLSSVTAADTAVYYCARNWAFHFDFWGQGTLVTVSS
VL: QSVLTQPPSVSGAPGQRVTISCTGSSSNIGTGYAVHWYQQFPGTAPKLLIYGNNNRPSGVPDRFSGSKSGTSASLAITGLQAEDEADYYCQSYDSRLSGWVFGGGTKLTVLG
notes: huIgG1z / huLLC-C1; Bin 1
B3: hu anti-<huCDH19> 26D1.1 (Ab ID 13882) (antibody, human IgG1, lambda, V domains shown)
VH: QVQLVQSGAEVKKPGASVKVSCKASRYTFTSYYMSWVRQAPGQGLEWMGIIHPSGGDTTYAQKFQGRVTMTGDTSTSTVYMELSSLRSEDTAVYYCARGGIKLWLHFDYWGQGTLVTVSS
VL: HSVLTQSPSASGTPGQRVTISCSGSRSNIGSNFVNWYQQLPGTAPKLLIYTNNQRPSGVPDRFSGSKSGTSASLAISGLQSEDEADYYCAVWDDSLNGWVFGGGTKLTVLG
notes: huIgG1z / huLLC-C2; Bin 2
B4: hu anti-<huCDH19> 4B10 (Ab ID 13590) (antibody, V domains shown)
VH: QVQLVESGGGVVQPGRSLRLSCAASGFTFSSYDMHWVRQAPGKGLEWVAVISYDGTNEYYADSVKGRFTISRDTSKNTLYLQMNSLRAEDTAVYYCARERYFDWSFDYWGQGTLVSVSS
VL: EIVLTQSPGTLSLSPGERATLSCRASQSVSNTYLAWYHQRPGQAPRLLIYGASSRATGIPDRFSGSGSGTDFALTISSLEPEDFAVYYCQQYSNSWTFGQGTKVEIKR
notes: huIgG1z / huKLC; Bin 4
B5: anti-CDH19 antibody 4A2 (Ab ID 13592) (antibody, human IgG1, kappa, V domains shown)
VH: QVQLQESGPGLVKPSQTLSLTCTVSGGSISSSGYYWSWIRQHPGKGLEWIGYIYYTGSAYYNPSLKSRVTISVDTSKNQFSLKLSSVTAADTAVYYCARDGSSGWYFQYWGQGTLVTVSS
VL: EIVLTQSPGTLSLSPGERATLSCRASRNISSSYLAWYQQKPGQAPRLLIYGPSSRATGIPDRFSGSGSGTDFTLTISRLEPEDFTVYYCQQYGSSFTFGPGTKVDIKR
notes: Bin 4
B6: hu anti-<huCDH19> 23A10.3 (1-474)(L92Q) VH::huIgG1z + 23A10.3 (1-231)(C42S) VL::huLLC-C2 (Ab ID 14077) (antibody, V domains shown)
VH: B1 VH with S31R, M34I, F50V, D66G, K84N, T91S, I103P, I106T
VL: B1 VL with T32V, C33S, R38K, L44I, T51N, R53W
notes: Engineered variant of 23A10; the entries already carry the changes; Bin 4

Molecular target: T1, Cyno Cadherin-19
Test: FACS, recombinant cynomologous CDH-19

binding result | Binder
binds | B1
binds | B2
binds | B3
binds | B4
binds | B5

Each binder was assayed against T4, huCDH19(44-141)::muCDH19(140-770) with Flag tag (construct B, Hu EC1) (human/mouse chimera) (assay: flow cytometry, transfected 293T cells).
T4 construct: leader left out; the entry starts at residue 44; also called C137897
Source text: (§1) The experiment included assaying the anti-CDH19 antibodies against mouse Cadherin19 to determine suitability for binning on these human/mouse chimeras.

binding result | Binder
binds | B1
binds | B2
binds | B3

What follows are binders tested against T5, huCDH19(44-249)::muCDH19(248-770) with Flag tag (construct C, Hu EC1-2) (human/mouse chimera) (assay: flow cytometry, transfected 293T cells).
T5 construct: leader left out; the entry starts at residue 44; also called C137896
Source text: as §1

binding result | Binder
binds | B1
binds | B2
binds | B3

The binders below were run against T6, rhCDH19(1-43)::FLAG::rhCDH19(44-65)::caCDH19(65-770) (construct S, rh EC1a) (rhesus macaque/dog chimera) (assay: flow cytometry, transfected 293T cells, 2 mM CaCl2;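 also: antibody binding read out as cell-bound Alexa647 label signal, with mock-transfected cells as controls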).
T6 construct: leader (1-43 of the entry) left out
Procedure: (§2) The following binding assay was completed in presence of 2 mM CaCl₂). […] Cells were then washed one time and the amount of cell associated Alexa647-labelled Ab was quantitated by flow cytometry. The experiments included mock transfected controls.

binding result | Binder
no binding (tested: 5 ug/ml) | B2
binds | B3

Molecular target: T2, caCDH19(1-43)::FLAG::caCDH19(44-87)::rhC …
Test: flow cytometry, transfected 293T cells, 2 mM CaCl2
Procedure: as §2

binding result | Binder
no binding (tested: 5 ug/ml) | B2
binds | B3

Molecular target: T3, muCDH19(44-770) with Flag tag …
Test: flow cytometry, transfected 293T cells, 2 mM CaCl2
Procedure: as §2

binding result | Binder
binds | B6
no binding (tested: 5 ug/ml) | B2
no binding (tested: 5 ug/ml) | B3
no binding (tested: 5 ug/ml) | B4

The binders below were run against T7, Human Cadherin-19 (human, UniProt Q9H159 44-772) (assay: FACS, endogenous CDH-19 on CHL-1 and Colo699 tumor cells).
T7 construct: also called CDH19; huCDH19
Procedure: FACS binding assays were performed to evaluate the binding of the anti-Cadherin-19 receptor specific antibodies to endogenous Cadherin-19 receptor expressed on the CHL-1 tumor cell lines.
FACs assays were performed by incubating hybridoma supernatants with 10,000 to 25,000 cells in PBS/2% Fetal bovine serum/2 mM Calcium Chloride at 4° C. for one hour followed by two washes with PBS/2% Fetal bovine serum/2 mM Calcium Chloride. Cells were then treated with florochrome-labeled secondary antibodies at 4° C. followed by one wash. The cells were resuspended in 50 μl of PBS/2% FBS and antibody binding was analyzed using a FACSCalibur™ instrument.

binding result | Binder
binds | B1
binds | B2
binds | B3
binds | B4
